In article PMC5869024:
Like-named read-outs stand apart in the source and are kept apart here.

What was measured:
[1] = biological target: CXCR1 extracellular loop peptide two linked extracellular loops (Homo sapiens) (UniProt P25024); details: cited from earlier work
ND-CXCR1(1–38) [2] = biological target: ND-CXCR1(1–38) (UniProt P25024); experiment: ITC
[3] = biological target: 1TM-CXCR1(1–72) reconstituted in nanodiscs (UniProt P25024); experiment: ITC
ND-CXCR1(1–38) [4] = biological target: ND-CXCR1(1–38) (UniProt P25024); experiment: ITC; remark: listed apart in the source

ND-CXCR1(1–38), sequence (P25024 1-38 C30S): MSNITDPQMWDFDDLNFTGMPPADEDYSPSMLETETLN
1TM-CXCR1(1–72) reconstituted in nanodiscs, sequence (P25024 1-72 C30S): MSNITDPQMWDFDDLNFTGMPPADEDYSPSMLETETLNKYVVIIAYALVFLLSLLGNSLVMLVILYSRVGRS
CXCR1 extracellular loop peptide two linked extracellular loops (Homo sapiens), sequence (P25024 whole entry): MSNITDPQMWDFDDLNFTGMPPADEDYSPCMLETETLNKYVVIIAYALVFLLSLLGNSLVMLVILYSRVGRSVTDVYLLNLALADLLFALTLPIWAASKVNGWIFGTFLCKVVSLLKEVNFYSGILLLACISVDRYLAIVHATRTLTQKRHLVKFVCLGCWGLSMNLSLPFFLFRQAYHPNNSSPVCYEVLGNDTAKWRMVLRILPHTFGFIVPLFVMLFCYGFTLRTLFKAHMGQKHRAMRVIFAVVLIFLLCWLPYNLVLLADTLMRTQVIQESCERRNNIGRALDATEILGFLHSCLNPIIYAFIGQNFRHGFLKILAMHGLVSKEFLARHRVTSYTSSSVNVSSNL
IL-8, sequence (P10145 28-99): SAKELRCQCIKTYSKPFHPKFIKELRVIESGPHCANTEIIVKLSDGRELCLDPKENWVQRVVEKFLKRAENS

Row | Kd (ND-CXCR1(1–38) [2]) | dH (ND-CXCR1(1–38) [2]) | Kd [3] | dH [3] | Kd (ND-CXCR1(1–38) [4]) | Substance | Kd [1]
1 | – | – | – | – | – | IL-8 (from UniProt P10145) | 0.5 µM
2 | 3.5 µM | -3.2 kcal/mol | 12.5 µM | -3.1 kcal/mol | 3.2 µM | monomeric Interleukin-8 IL-8(1–66) (ligand) | –
